According to patent publication US20070243582A1:

Molecular target: human IgG (Sigma) (human)
Assay: ELISA: SPA′ coated at 5 µg/mL, human IgG 25 µg/mL, detection with HRP-labeled protein L, absorbance at 405 nm

- human IgG-binding activity per unit mass, relative to protein A manufactured by Repligen: 97%
Substance: SPA′ (part of protein A of Staphylococcus aureus Cowan I strain (JCM2179) except for the signal sequence (S domain) and the cell wall-binding domain (X domain)), produced by Brevibacillus choshinensis HPD31-OK having Spa′-pNK3260 (from UniProt P38507 37-327)
